Reference: PMC7577485, “An intrinsic mechanism for coordinated production of the contact-dependent and contact-independent weapon systems in a soil bacterium” (PLoS Pathogens, 2020)

Assays:
[1] = molecular target: T1, GST-Clp (Clp) (Lysobacter enzymogenes, UniProt Q7WZ07); assay: microscale thermophoresis, NT-647-labelled GST-Clp; assay type: binding; details: 25 °C; 10 μM labelled protein (130 mM NaHCO3, 50 mM NaCl); no Hcp; protein concentration above Kd
T1 construct: labelled with NT-647-NHS for MST
T1 sequence (Q7WZ07 1-229): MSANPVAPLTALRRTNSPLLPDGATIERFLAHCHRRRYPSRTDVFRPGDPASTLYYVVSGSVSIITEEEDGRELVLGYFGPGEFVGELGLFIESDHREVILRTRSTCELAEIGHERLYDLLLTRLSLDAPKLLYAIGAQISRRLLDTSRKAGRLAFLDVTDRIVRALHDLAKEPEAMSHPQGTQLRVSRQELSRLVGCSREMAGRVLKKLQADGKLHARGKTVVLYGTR

[2] = molecular target: GST-Clp (Lysobacter enzymogenes) (UniProt Q7WZ07); assay: MST; 10 μM NT-647-NHS labelled GST-Clp or GST in label buffer (130 mM NaHCO3, 50 mM NaCl) titrated with unlabelled Hcp-His6 in PBS; Monolith NT.115, 25°C, 80% MST power, 20% LED power
[3] = tested on: Clp (Lysobacter enzymogenes OH11); assay: MST; details: MST: 0.5 uM FAM-DNA, Clp in PBS, 25 C

Question: How did the Kd [1] turn out when `Nc1nc2c(ncn2[C@@H]2O[C@@H]3COP(=O)(O)O[C@H]4[C@@H](O)[C@H](n5cnc6c(=O)[nH]c(N)nc65)O[C@@H]4COP(=O)(O)O[C@H]3[C@H]2O)c(=O)[nH]1` [c-di-GMP] was run?
Answer: 1500 nM

Question: Which Kd [2] does the source give for Hcp-His6 (natural protein) here?
Answer: 1510 nM

Question: With PA site probe, HSAF operon promoter as the molecule, how does the Kd [3] read?
Answer: 390 nM
